In patent US20220073604A1 (ARGENX BVBA, published 2022):
Changes are numbered by the printed parent chain. Values joined by “and” are separate entries in the source; they are usually repeats but may differ in a detail not shown here. Equal entries are not always repeated.

B1: Fab 20A4 (Fab, V domains shown)
VH: EVQLQESGPGLVKPSQTLSLTCTVSGGSITTRYYAWSWIRQPPGKGLEWMGVIDYDGDTYYSPSLKSRTSISWDTSKNQFSLQLSSVTPEDTAVYYCARDPDVVTGFHYDYWGQGTQVTVSS
VL: LNFMLTQPPSVSGTLGKTVTISCAGTSSDIGGYNYVSWYQQLPGTAPKLLIHRVSTRASGIPDRFSGSKSGNTASLTISGLRSEDEANYYCASYRNFNNAVFGGGTQLTVLG
notes: Fab
B2: Fab 18C7 (Fab, V domains shown)
VH: EVQLVESGPGLVKPSQTLSLTCTVSGGSITASFDAWSWIRQPPGKGLEWMGVIAYDGSTYYSPSLKSRTSISRDTSKNQFSLQLSSVTPEDTAVYYCARKSSWLIGYGMDYWGKGTLVTVSS
VL: QAGLTQPSALSVTLGQTAKITCQGGSLGSSYAHWYQQKPGQAPVLVIYDDDSRPSGIPERFSGSSSGGRATLTISGAQAEDEGDYYCQSADSSGNAAVFGGGTHLTVLG
notes: Fab; also called 18C7 (090-423)
B3: Fab 18C11 (Fab, V domains shown)
VH: EVQLVESGGGLVQPGGSLRLSCAASGFTFSSYAMSWVRQAPGKGLEWVSAINSGGGSTSYADSVKGRFTISRDNAKNTLYLQMNSLKPEDTAVYYCAKEGDTGWKDPMYDYWGQGTQVTVSS
VL: B2 VL with A2S, G3V, L4V, S26G, G28R
notes: Fab
B4: Fab 29B11 (Fab, V domains shown)
VH: EVQLVESGGGLVQPGGSLRLSCAASGFTFSSYAMSWVRQAPGKGLEWVSRISSGGISTYYADSVKGRFTISRDNAKNTLYLQMNSLKPEDTAVYYCVRYAWGVQWAFDFWGQGTQVTVSS
VL: QSVLTQPPSVSGSPGQTVTISCAGTSEDVGYGNYVSWYQQLPGMAPKLLIYDVNKRASGIADRFSGSKSGNTASLTISGLQSEDEADYYCASYRRTIDNIFGGGTHLTVLG
notes: Fab
B5: Fab 55H1 (Fab, V domains shown)
VH: B4 VH
VL: AQSVVTQPPSVSGSPGKTVTISCAGTSSDVGYGNYVSWYQQLPGMAPKLLIYDVSKRASGIADRFSGSKSGNTASLTISGLQSEDEADYVCASYRRGGTAVFGGGTHLTVLG
notes: VL-shuffled Fab of 29B11, periplasmic fraction; also called 55H1c
B6: Fab 55C1 (Fab, V domains shown)
VH: B4 VH
VL: LNFMLTQPPSVSGSPGKTVTISCAGTSSDVGYGNYVSWYQQLPGTAPKLLIYNVNKRASGITDRFSGSKSGNTASLTISGLQSEDEADYYCASYRTGDNAAFGGGTKLTVLG
notes: VL-shuffled Fab of 29B11, periplasmic fraction; also called 55C1a
B7: Fab 48C10 (Fab, V domains shown)
VH: B4 VH
VL: B5 VL with V5L, K17Q, S28E, S55N, V90Y, G97T, G98I, T99D, A100N, V101I
notes: VL-shuffled Fab of 29B11, periplasmic fraction
B8: Fab 24C9 (Fab, V domains shown)
VH: QVQLVESGGGLVQPGGSLRLSCAASGFTFSSYRMYWVRQPPGKGLEWVSAISAGGGSTYYGDSVKGRFTISRDNAKNTVYLQMNSLKPEDTALYYCKKSTWADGESDYWGQGTQVTVSS
VL: QTVVTQEPSLSVSPGGTVTLTCGLSSGSVTASNYPGWFQQTPGQAPRALIYSTNDRHSGVPSRFSGSISGNKAALTITGAQPEDEADYYCALDIGDITEFGGGTHLTVLG
notes: Fab
B9: Fab 41E10/35B1 (Fab, V domains shown)
VH: EVQLQESGPGLVKPSQTLSLTCTVSGGSIATSYYAWSWIRQPPGKGLEWMGVIDYDGDTYYKPSLKSRTSISRDTSKNQFSLQLSSVTPEDTAVYYCARAGLGDSYYLGTYYAMDYWGKGTLVTVSS
VL: QAVLTQPPSMSGTLGKTLTISCNGTSSDIGSGNYVSWYQQLPGTTPKLLIEGVTTRVSGIPDRFSGSKSDNTASLTISGLQSEDEATYYCASYRETNNVVFGGGTHLTVLG
notes: VL-shuffled Fab of 17F10
B10: Fab 41B5/35C1 (Fab, V domains shown)
VH: B9 VH
VL: B9 VL with A2S, V3A, N33D, V57A, G66A, G111S
notes: VL-shuffled Fab of 17F10
B11: Fab 18C9 (Fab, V domains shown)
VH: B3 VH with S31R, Y32N, D101Y
VL: LNFMLTQPSALSVTLGQTAKITCQGGSLGSRYAHWYQQKPGQAPVLVIYDDDSRPSGIPERFSGSSSGGRATLTISGAQAEDDGDYYCQSADSSGNASVFGGGTHLTVLG
notes: Fab
B12: Fab 42H1/36A1 (Fab, V domains shown)
VH: B3 VH
VL: B11 VL with L1A, N2Q, F3S, M4A, S30T, D83E
notes: VL-shuffled Fab of 18C11

Assays:
cynomolgus monkey IL-6 [1] = target: T1, cynomolgus monkey IL-6 (cynomolgus monkey, UniProt P79341 28-212, limits assumed); assay: SPR; purified Fab
T1 construct: also called HIS-cyIL-6

[2] = target: T2, bacterially produced human IL-6 (human, UniProt P05231 30-212); assay: SPR; purified Fab
T2 construct: also called bactIL-6; prokaryotic IL-6

[3] = target: T3, eukaryotically produced human IL-6 (human, UniProt P05231 30-212); assay: SPR; purified Fab
T3 construct: also called eukIL-6; Euk IL-6

[4] = target: T2, bacterially produced human IL-6; assay: SPR; purified Fab over biotinylated IL-6 on streptavidin chip
Description: (§1) From the washing phase the off-rate (kd) was determined, while from the injection phase the on-rate (ka) was calculated using the concentration and off-rate as parameters.

[5] = target: T2, bacterially produced human IL-6; assay: SPR; purified Fab; IL-6 coated on CM5 chip
Description: as §1

[6] = target: T3, eukaryotically produced human IL-6; assay: SPR; purified Fab; IL-6 coated on CM5 chip
Description: as §1

cynomolgus monkey IL-6 [7] = target: T1, cynomolgus monkey IL-6; assay: SPR; periplasmic fraction
[8] = target: T2, bacterially produced human IL-6; assay: SPR; periplasmic fraction
[9] = target: T3, eukaryotically produced human IL-6; assay: SPR; periplasmic fraction
cynomolgus monkey IL-6 [10] = target: T1, cynomolgus monkey IL-6; assay: SPR; periplasmic fraction; against parental 29B11
[11] = target: T2, bacterially produced human IL-6; assay: SPR; periplasmic fraction; against parental 29B11
[12] = target: T3, eukaryotically produced human IL-6; assay: SPR; periplasmic fraction; against parental 29B11

Binder	Kd (cynomolgus monkey IL-6 [1])	koff (cynomolgus monkey IL-6 [1])	Kd [2] [nM]	koff [2] [s⁻¹]	Kd [3]	koff [3]	Ka [4] [M⁻¹]	Kd [4] [nM]	koff [4] [s⁻¹]	kon [4] [M⁻¹ s⁻¹]	Kd [5] [nM]	koff [5] [s⁻¹]	Kd [6] [nM]	koff [6] [s⁻¹]	Ka (cynomolgus monkey IL-6 [7]) [M⁻¹]	Kd (cynomolgus monkey IL-6 [7]) [nM]	koff (cynomolgus monkey IL-6 [7]) [s⁻¹]	kon (cynomolgus monkey IL-6 [7]) [M⁻¹ s⁻¹]	Ka [8] [M⁻¹]	Kd [8] [nM]	also measured
B1	1.7 nM	0.00075 s⁻¹	2	0.00062	0.81 nM	0.0003 s⁻¹	1.72e+08	5.82	0.00168	288000	2	0.00062	0.81	0.0003							
B2	5.3 nM and 4.9 nM	0.00063 s⁻¹ and 0.00069 s⁻¹	9.1	0.0011	7.7 nM and 5.2 nM	0.001 s⁻¹ and 0.00082 s⁻¹	5.7e+07	17.5	0.00185	105000	9.1	0.0011	7.7	0.001							
B3	3.4 nM	0.00085 s⁻¹			2.9 nM	0.00076 s⁻¹	7.05e+07	14.2	0.000784	55200											
B4							4.36e+07	22.9	0.00298	130000	0.93	0.00022	0.51	0.0001	1.51e+08	6.61	0.000746	113000	1.91e+09	0.524	koff [8]: 0.000131 s⁻¹; kon [8]: 251000 M⁻¹ s⁻¹; Ka [9]: 1.83e+09 M⁻¹; Kd [9]: 0.546 nM; koff [9]: 0.000102 s⁻¹; kon [9]: 187000 M⁻¹ s⁻¹
B5															1.89e+09	0.529	0.000615	1.16e+06	1e+10	0.0997	koff [8]: 0.000127 s⁻¹; kon [8]: 1.28e+06 M⁻¹ s⁻¹; Ka [9]: 1.02e+10 M⁻¹; Kd [9]: 0.0977 nM; koff [9]: 0.000111 s⁻¹; kon [9]: 1.13e+06 M⁻¹ s⁻¹; fold improvement KD (cynomolgus monkey IL-6 [10]): 12.5 fold; fold improvement ka (cynomolgus monkey IL-6 [10]): 10.3 fold; fold improvement kd (cynomolgus monkey IL-6 [10]): 1.21 fold; fold improvement KD [11]: 5.26 fold; fold improvement ka [11]: 5.1 fold; fold improvement kd [11]: 1.03 fold; fold improvement KD [12]: 5.59 fold; fold improvement ka [12]: 6.04 fold; fold improvement kd [12]: 0.92 fold
B6															1.25e+09	0.801	0.000381	475000	7.6e+09	0.132	koff [8]: 7.38e-05 s⁻¹; kon [8]: 561000 M⁻¹ s⁻¹; Ka [9]: 5.55e+09 M⁻¹; Kd [9]: 0.18 nM; koff [9]: 7.93e-05 s⁻¹; kon [9]: 440000 M⁻¹ s⁻¹; fold improvement KD (cynomolgus monkey IL-6 [10]): 8.25 fold; fold improvement ka (cynomolgus monkey IL-6 [10]): 4.2 fold; fold improvement kd (cynomolgus monkey IL-6 [10]): 1.96 fold; fold improvement KD [11]: 3.97 fold; fold improvement ka [11]: 2.24 fold; fold improvement kd [11]: 1.78 fold; fold improvement KD [12]: 3.03 fold; fold improvement ka [12]: 2.35 fold; fold improvement kd [12]: 1.29 fold
B7															4.1e+08	2.44	0.00044	180000	1.43e+09	0.701	koff [8]: 0.000184 s⁻¹; kon [8]: 262000 M⁻¹ s⁻¹; fold improvement KD (cynomolgus monkey IL-6 [10]): 2.71 fold; fold improvement ka (cynomolgus monkey IL-6 [10]): 1.59 fold; fold improvement kd (cynomolgus monkey IL-6 [10]): 1.7 fold; fold improvement KD [11]: 0.75 fold; fold improvement ka [11]: 1.04 fold; fold improvement kd [11]: 0.71 fold
B8							1.51e+09	0.661	8.77e-05	133000	2.6	0.00037	1.7	0.0003							
B9	0.34 nM	0.00012 s⁻¹	0.54	0.00016	0.46 nM	0.00016 s⁻¹															
B10	0.28 nM and 0.72 nM	8.1e-05 s⁻¹ and 0.00017 s⁻¹	0.47	0.00011	0.41 nM and 0.92 nM	0.00012 s⁻¹ and 0.0002 s⁻¹															
B11							4.67e+07	21.4	0.00119	55600	4.9	0.00036	2.4	0.00021							
B12	0.69 nM	0.00015 s⁻¹	0.75	0.00015	0.34 nM	0.00011 s⁻¹															
